This assay deals with recombinant flagellin of Bacillus cereus HN001 (WR52_08290) (Bacillus cereus HN001). Nature of the assay: BLI. Background: Biolayer interferometry detects binding as a change in optical thickness at a sensor tip.

B1: pigeon ovomucoid (natural protein)
chain: VEVDCSRYHNTTNVEGREGLPCTKDFNPICGSDGVTYDNECLLCSYNREYGTNVSKDHDGQCREVIPVDCSKYPNVTNEEGRVALFCTENLRLVCGADGVTYDNECLLCARSLERGTRAGKKYDGECRREITTVDCSDHPQHACTLNYLPVCGSDSRTYSNRCNFCNAVVHSNGTLTLNYFGEC
modifications: terminal Galα1-4Gal residues; biotin (biotinylated POVO in the BLI assay)
With B1, the off-rate (koff) (usually the rate constant with which the complex falls apart) came out at 0.000376 s⁻¹.

For the origin of these results see article PMC7567440 (2020).
